Columns and labels:
Assay in all cases: multimer staining
[1] = molecular target: T1, MUC5AC peptide on HLA-DPA1*01:03 / HLA-DPB1*04:01 (human)
T1 peptide: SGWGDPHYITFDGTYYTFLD

[2] = molecular target: T2, MAGE-A2 peptide on HLA-DPA1*01:03 / HLA-DPB1*04:01 (human)
T2 peptide: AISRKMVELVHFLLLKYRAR

[3] = molecular target: T3, CCND1 peptide on HLA-DPA1*01:03 / HLA-DPB1*04:01 (human)
T3 peptide: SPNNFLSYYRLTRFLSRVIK

[4] = molecular target: T4, LGSN peptide on HLA-DPA1*01:03 / HLA-DPB1*04:01 (human)
T4 peptide: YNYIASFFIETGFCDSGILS

[5] = molecular target: T5, HSD17B12 peptide on HLA-DPA1*01:03 / HLA-DPB1*04:01 (human)
T5 peptide: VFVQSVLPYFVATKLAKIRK

B1: 05-MUC5AC4922-4941 (TCR)
Valpha: QTVTQSQPEMSVQEAETVTLSCTYDTSESNYYLFWYKQPPSRQMILVIRQEAYKQQNATENRFSVNFQKAAKSFSLKISDSQLGDTAMYFCAFMKRAETSGSRLTFGEGTQLTVNP
beta TRBV6-2*01 TRBJ2-5*01 CDR3: CASSYWPTRETQYF
B1: recognises [1].

B2: 06-MAGE-A2108-127 (TCR)
alpha TRAV19*01 TRAJ40*01 CDR3: CALSVGTYKYIF
beta TRBV7-9*01 TRBJ2-5*01 CDR3: CASSPGTGGRETQYF
B2: recognises [2].

B3: 03-CCND1219-238 (TCR)
alpha TRAV2*01 TRAJ21*01 CDR3: CAVCTLYNFNKFYF
beta TRBV6-5*01 TRBJ2-1*01 CDR3: CASLTDNNEQFF
B3: recognises [3].

B4: 03-MAGE-A2108-127 (TCR)
alpha TRAV36/DV7*04 TRAJ40*01 CDR3: CAVEVNSGTYKYIF
beta TRBV2*01 TRBJ1-1*01 CDR3: CASRRDLAAFF
B4: recognises [2].

B5: 05-LGSN296-315 (TCR)
alpha TRAV9-2*03 TRAJ32*01 CDR3: CALSDLSYGGATNKLIF
beta TRBV27*01 TRBJ1-5*01 CDR3: CASSKGQGLGNQPQHF
B5: recognises [4].

B6: 05-HSD17B12225-244 (TCR)
alpha TRAV22*01 TRAJ18*01 CDR3: CAVAPYDRGSTLGRLYF
beta TRBV19*01 TRBJ2-5*01 CDR3: CASSTGQGLETQYF
B6: recognises [5].

From patent US20220281948A1 (published 2022)
